The values that follow come from publication PMC4774645.

Data set [1] in a line: Western blot of cell lysate. The following applies: glycan lost; control: wild type.
Data set [2] is described as follows: Western blot of culture media, 24 h. To be noted: glycan lost; control: wild type. (In general: Immunoblotting shows a protein as a band on a membrane.)
A short description of data set [3]: mCherry fluorescence in media, 32 h time course. To be noted: glycan lost; control: wild type.
A short description of data set [4]: fluorogenic substrate assay on cell lysate. The following applies: glycan lost; control: wild type.
Data set [5] is described as follows: mCherry co-localisation with organelle-targeted eGFP. To be noted: glycan lost; control: wild type.
The nature of data set [6]: Western blot of media, transfected HEK293. The following applies: control: untreated.
The nature of data set [7]: mCherry fluorescence in media, 24 h, N38X series. To be noted: glycan lost; control: wild type.

B1: human matrix metalloproteinase 9 (hMMP-9): N120S (protein)
parent chain: MSLWQPLVLVLLVLGCCFAAPRQRQSTLVLFPGDLRTNLTDRQLAEEYLYRYGYTRVAEMRGESKSLGPALLLLQKQLSLPETGELDSATLKAMRTPRCGVPDLGRFQTFEGDLKWHHHNITYWIQNYSEDLPRAVIDDAFARAFALWSAVTPLTFTRVYSRDADIVIQFGVAEHGDGYPFDGKDGLLAHAFPPGPGIQGDAHFDDDELWSLGKGVVVPTRFGNADGAACHFPFIFEGRSYSACTTDGRSDGLPWCSTTANYDTDDRFGFCPSERLYTQDGNADGKPCQFPFIFQGQSYSACTTDGRSDGYRWCATTANYDRDKLFGFCPTRADSTVMGGNSAGELCVFPFTFLGKEYSTCTSEGRGDGRLWCATTSNFDSDKKWGFCPDQGYSLFLVAAHEFGHALGLDHSSVPEALMYPMYRFTEGPPLHKDDVNGIRHLYGPRPEPEPRPPTTTTPQPTAPPTVCPTGPPTVHPSERPTAGPTGPPSAGPTGPPTAGPSTATTVPLSPVDDACNVNIFDAIAEIGNQLYLFKDGKYWRFSEGRGSRPQGPFLIADKWPALPRKLDSVFEERLSKKLFFFSGRQVWVYTGASVLGPRRLDKLGLGADVAQVTGALRSGRGKMLLFSGRRLWRFDVKAQMVDPRSASEVDRMFPGVPLDTHDVFQYREKAYFCQDRFYWRVSSRSELNQVDQVGYVTYDILQCPED
Turning to B1, the figures for the expression_or_secretion result in data set [1] and in data set [2] were “no change” and “decreases”, respectively. Also, the “expression_or_secretion, fold_change” value in data set [3] is recorded as “decreases”. In addition, the enzymatic_activity result in data set [4] is “decreases”. Besides, the localisation_or_trafficking result in data set [5] is “changes”.

B2: human matrix metalloproteinase 9 (hMMP-9): tunicamycin (protein)
parent chain: MSLWQPLVLVLLVLGCCFAAPRQRQSTLVLFPGDLRTNLTDRQLAEEYLYRYGYTRVAEMRGESKSLGPALLLLQKQLSLPETGELDSATLKAMRTPRCGVPDLGRFQTFEGDLKWHHHNITYWIQNYSEDLPRAVIDDAFARAFALWSAVTPLTFTRVYSRDADIVIQFGVAEHGDGYPFDGKDGLLAHAFPPGPGIQGDAHFDDDELWSLGKGVVVPTRFGNADGAACHFPFIFEGRSYSACTTDGRSDGLPWCSTTANYDTDDRFGFCPSERLYTQDGNADGKPCQFPFIFQGQSYSACTTDGRSDGYRWCATTANYDRDKLFGFCPTRADSTVMGGNSAGELCVFPFTFLGKEYSTCTSEGRGDGRLWCATTSNFDSDKKWGFCPDQGYSLFLVAAHEFGHALGLDHSSVPEALMYPMYRFTEGPPLHKDDVNGIRHLYGPRPEPEPRPPTTTTPQPTAPPTVCPTGPPTVHPSERPTAGPTGPPSAGPTGPPTAGPSTATTVPLSPVDDACNVNIFDAIAEIGNQLYLFKDGKYWRFSEGRGSRPQGPFLIADKWPALPRKLDSVFEERLSKKLFFFSGRQVWVYTGASVLGPRRLDKLGLGADVAQVTGALRSGRGKMLLFSGRRLWRFDVKAQMVDPRSASEVDRMFPGVPLDTHDVFQYREKAYFCQDRFYWRVSSRSELNQVDQVGYVTYDILQCPED
As to B2, the expression_or_secretion result in data set [6] (glycan lost) is “decreases”.

B3: human matrix metalloproteinase 9 (hMMP-9): N38E (protein)
parent chain: MSLWQPLVLVLLVLGCCFAAPRQRQSTLVLFPGDLRTNLTDRQLAEEYLYRYGYTRVAEMRGESKSLGPALLLLQKQLSLPETGELDSATLKAMRTPRCGVPDLGRFQTFEGDLKWHHHNITYWIQNYSEDLPRAVIDDAFARAFALWSAVTPLTFTRVYSRDADIVIQFGVAEHGDGYPFDGKDGLLAHAFPPGPGIQGDAHFDDDELWSLGKGVVVPTRFGNADGAACHFPFIFEGRSYSACTTDGRSDGLPWCSTTANYDTDDRFGFCPSERLYTQDGNADGKPCQFPFIFQGQSYSACTTDGRSDGYRWCATTANYDRDKLFGFCPTRADSTVMGGNSAGELCVFPFTFLGKEYSTCTSEGRGDGRLWCATTSNFDSDKKWGFCPDQGYSLFLVAAHEFGHALGLDHSSVPEALMYPMYRFTEGPPLHKDDVNGIRHLYGPRPEPEPRPPTTTTPQPTAPPTVCPTGPPTVHPSERPTAGPTGPPSAGPTGPPTAGPSTATTVPLSPVDDACNVNIFDAIAEIGNQLYLFKDGKYWRFSEGRGSRPQGPFLIADKWPALPRKLDSVFEERLSKKLFFFSGRQVWVYTGASVLGPRRLDKLGLGADVAQVTGALRSGRGKMLLFSGRRLWRFDVKAQMVDPRSASEVDRMFPGVPLDTHDVFQYREKAYFCQDRFYWRVSSRSELNQVDQVGYVTYDILQCPED
Take B3: the expression_or_secretion result in data set [7] is listed as “no change”.

B4: human matrix metalloproteinase 9 (hMMP-9): mS38/ N120S (protein)
parent chain: MSLWQPLVLVLLVLGCCFAAPRQRQSTLVLFPGDLRTNLTDRQLAEEYLYRYGYTRVAEMRGESKSLGPALLLLQKQLSLPETGELDSATLKAMRTPRCGVPDLGRFQTFEGDLKWHHHNITYWIQNYSEDLPRAVIDDAFARAFALWSAVTPLTFTRVYSRDADIVIQFGVAEHGDGYPFDGKDGLLAHAFPPGPGIQGDAHFDDDELWSLGKGVVVPTRFGNADGAACHFPFIFEGRSYSACTTDGRSDGLPWCSTTANYDTDDRFGFCPSERLYTQDGNADGKPCQFPFIFQGQSYSACTTDGRSDGYRWCATTANYDRDKLFGFCPTRADSTVMGGNSAGELCVFPFTFLGKEYSTCTSEGRGDGRLWCATTSNFDSDKKWGFCPDQGYSLFLVAAHEFGHALGLDHSSVPEALMYPMYRFTEGPPLHKDDVNGIRHLYGPRPEPEPRPPTTTTPQPTAPPTVCPTGPPTVHPSERPTAGPTGPPSAGPTGPPTAGPSTATTVPLSPVDDACNVNIFDAIAEIGNQLYLFKDGKYWRFSEGRGSRPQGPFLIADKWPALPRKLDSVFEERLSKKLFFFSGRQVWVYTGASVLGPRRLDKLGLGADVAQVTGALRSGRGKMLLFSGRRLWRFDVKAQMVDPRSASEVDRMFPGVPLDTHDVFQYREKAYFCQDRFYWRVSSRSELNQVDQVGYVTYDILQCPED
On to B4, for which the results for the expression_or_secretion entry in data set [1] and in data set [2] were “no change” and “abolishes”, respectively. Moreover, the “expression_or_secretion, fold_change” value in data set [3] is on record as “decreases”. The enzymatic_activity entry in data set [4] is “decreases”. In data set [5], the localisation_or_trafficking entry was “changes”.

B5: human matrix metalloproteinase 9 (hMMP-9): castanospermine (CST) (protein)
parent chain: MSLWQPLVLVLLVLGCCFAAPRQRQSTLVLFPGDLRTNLTDRQLAEEYLYRYGYTRVAEMRGESKSLGPALLLLQKQLSLPETGELDSATLKAMRTPRCGVPDLGRFQTFEGDLKWHHHNITYWIQNYSEDLPRAVIDDAFARAFALWSAVTPLTFTRVYSRDADIVIQFGVAEHGDGYPFDGKDGLLAHAFPPGPGIQGDAHFDDDELWSLGKGVVVPTRFGNADGAACHFPFIFEGRSYSACTTDGRSDGLPWCSTTANYDTDDRFGFCPSERLYTQDGNADGKPCQFPFIFQGQSYSACTTDGRSDGYRWCATTANYDRDKLFGFCPTRADSTVMGGNSAGELCVFPFTFLGKEYSTCTSEGRGDGRLWCATTSNFDSDKKWGFCPDQGYSLFLVAAHEFGHALGLDHSSVPEALMYPMYRFTEGPPLHKDDVNGIRHLYGPRPEPEPRPPTTTTPQPTAPPTVCPTGPPTVHPSERPTAGPTGPPSAGPTGPPTAGPSTATTVPLSPVDDACNVNIFDAIAEIGNQLYLFKDGKYWRFSEGRGSRPQGPFLIADKWPALPRKLDSVFEERLSKKLFFFSGRQVWVYTGASVLGPRRLDKLGLGADVAQVTGALRSGRGKMLLFSGRRLWRFDVKAQMVDPRSASEVDRMFPGVPLDTHDVFQYREKAYFCQDRFYWRVSSRSELNQVDQVGYVTYDILQCPED
Take B5: the expression_or_secretion result in data set [6] (glycan changed form) is “decreases”.

B6: human matrix metalloproteinase 9 (hMMP-9): N38G (protein)
parent chain: MSLWQPLVLVLLVLGCCFAAPRQRQSTLVLFPGDLRTNLTDRQLAEEYLYRYGYTRVAEMRGESKSLGPALLLLQKQLSLPETGELDSATLKAMRTPRCGVPDLGRFQTFEGDLKWHHHNITYWIQNYSEDLPRAVIDDAFARAFALWSAVTPLTFTRVYSRDADIVIQFGVAEHGDGYPFDGKDGLLAHAFPPGPGIQGDAHFDDDELWSLGKGVVVPTRFGNADGAACHFPFIFEGRSYSACTTDGRSDGLPWCSTTANYDTDDRFGFCPSERLYTQDGNADGKPCQFPFIFQGQSYSACTTDGRSDGYRWCATTANYDRDKLFGFCPTRADSTVMGGNSAGELCVFPFTFLGKEYSTCTSEGRGDGRLWCATTSNFDSDKKWGFCPDQGYSLFLVAAHEFGHALGLDHSSVPEALMYPMYRFTEGPPLHKDDVNGIRHLYGPRPEPEPRPPTTTTPQPTAPPTVCPTGPPTVHPSERPTAGPTGPPSAGPTGPPTAGPSTATTVPLSPVDDACNVNIFDAIAEIGNQLYLFKDGKYWRFSEGRGSRPQGPFLIADKWPALPRKLDSVFEERLSKKLFFFSGRQVWVYTGASVLGPRRLDKLGLGADVAQVTGALRSGRGKMLLFSGRRLWRFDVKAQMVDPRSASEVDRMFPGVPLDTHDVFQYREKAYFCQDRFYWRVSSRSELNQVDQVGYVTYDILQCPED
In the case of B6, in data set [7], the expression_or_secretion entry is listed as “no change”.

B7: human matrix metalloproteinase 9 (hMMP-9): N38P (protein)
parent chain: MSLWQPLVLVLLVLGCCFAAPRQRQSTLVLFPGDLRTNLTDRQLAEEYLYRYGYTRVAEMRGESKSLGPALLLLQKQLSLPETGELDSATLKAMRTPRCGVPDLGRFQTFEGDLKWHHHNITYWIQNYSEDLPRAVIDDAFARAFALWSAVTPLTFTRVYSRDADIVIQFGVAEHGDGYPFDGKDGLLAHAFPPGPGIQGDAHFDDDELWSLGKGVVVPTRFGNADGAACHFPFIFEGRSYSACTTDGRSDGLPWCSTTANYDTDDRFGFCPSERLYTQDGNADGKPCQFPFIFQGQSYSACTTDGRSDGYRWCATTANYDRDKLFGFCPTRADSTVMGGNSAGELCVFPFTFLGKEYSTCTSEGRGDGRLWCATTSNFDSDKKWGFCPDQGYSLFLVAAHEFGHALGLDHSSVPEALMYPMYRFTEGPPLHKDDVNGIRHLYGPRPEPEPRPPTTTTPQPTAPPTVCPTGPPTVHPSERPTAGPTGPPSAGPTGPPTAGPSTATTVPLSPVDDACNVNIFDAIAEIGNQLYLFKDGKYWRFSEGRGSRPQGPFLIADKWPALPRKLDSVFEERLSKKLFFFSGRQVWVYTGASVLGPRRLDKLGLGADVAQVTGALRSGRGKMLLFSGRRLWRFDVKAQMVDPRSASEVDRMFPGVPLDTHDVFQYREKAYFCQDRFYWRVSSRSELNQVDQVGYVTYDILQCPED
As for B7, the expression_or_secretion result in data set [7] was “no change”.
